Columns and labels:
[1] = biological target: T1, recombinant human CD73 protein (human, UniProt P21589 27-547); experiment: SPR, Biacore T200, antibody captured by anti-human Fc IgG, antigen as analyte, 1:1 model, 25 C
T1 construct: Bought (Novoprotein); also called recombinant CD73 protein; soluble CD73
T1 sequence: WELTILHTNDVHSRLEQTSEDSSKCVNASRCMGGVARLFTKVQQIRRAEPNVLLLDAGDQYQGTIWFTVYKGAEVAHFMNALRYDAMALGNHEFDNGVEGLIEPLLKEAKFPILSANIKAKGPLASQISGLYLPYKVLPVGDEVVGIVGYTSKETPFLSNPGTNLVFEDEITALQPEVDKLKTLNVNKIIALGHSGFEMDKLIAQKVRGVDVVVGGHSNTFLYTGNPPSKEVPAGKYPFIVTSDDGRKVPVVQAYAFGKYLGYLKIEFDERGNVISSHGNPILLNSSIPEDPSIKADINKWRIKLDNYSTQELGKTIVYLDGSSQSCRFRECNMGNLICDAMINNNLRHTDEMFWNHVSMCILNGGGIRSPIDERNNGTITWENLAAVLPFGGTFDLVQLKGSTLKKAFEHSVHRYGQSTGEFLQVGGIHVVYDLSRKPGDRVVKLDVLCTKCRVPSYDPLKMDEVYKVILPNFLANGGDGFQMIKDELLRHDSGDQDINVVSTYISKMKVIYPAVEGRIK
Protocol: For the binding assay, the Biacore T200 system was used through human antibody capture approach. The anti-human Fc lgG were immobilized on CMS sensor chip according to the manufactory's instruction. The test antibody was injected and captured by the immobilized anti-human Fc lgG. And then serial concentrations of antigen was individually injected, and the binding profile was recorded for each concentration antigen analyte, respectively. The assay system was regenerated by injection of 10 mM Glycine-HCl pH 1.5 for 30 seconds. The running buffer was HBS-EP+(10 mM HEPES, pH 7.4, 150 mM NaCl, 3 mM EDTA and 0.05% P20). The assay temperature was 25° C., and the association and dissociation time were 180 and 600 seconds, respectively.

[2] = biological target: T1, recombinant human CD73 protein; experiment: cell-based or functional assay
[3] = biological target: T2, human CD73 on the cell surface (human, UniProt P21589 27-549); experiment: cell-based or functional assay
T2 sequence: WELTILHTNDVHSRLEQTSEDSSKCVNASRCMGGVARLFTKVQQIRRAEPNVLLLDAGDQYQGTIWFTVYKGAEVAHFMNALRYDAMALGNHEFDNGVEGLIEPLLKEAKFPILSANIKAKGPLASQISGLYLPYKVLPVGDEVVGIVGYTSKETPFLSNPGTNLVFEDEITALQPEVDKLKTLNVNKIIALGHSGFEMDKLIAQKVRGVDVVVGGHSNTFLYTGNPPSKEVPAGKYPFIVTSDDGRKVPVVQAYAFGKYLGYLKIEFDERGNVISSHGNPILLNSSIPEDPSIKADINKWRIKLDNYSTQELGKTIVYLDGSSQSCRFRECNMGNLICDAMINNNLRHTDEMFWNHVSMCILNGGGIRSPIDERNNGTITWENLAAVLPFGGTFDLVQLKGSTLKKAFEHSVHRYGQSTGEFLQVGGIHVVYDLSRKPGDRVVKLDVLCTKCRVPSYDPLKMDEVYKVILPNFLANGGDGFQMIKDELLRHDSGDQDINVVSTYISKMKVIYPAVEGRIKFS

[4] = biological target: T2, human CD73 on the cell surface; experiment: flow cytometry on SK-OV-3 cells
Protocol: Binding was measured using an FACSCanto (Becton-Dickinson), and the results are presented in FIG. 8 (see also the table below).

E400A [5] = biological target: T3, E400A; experiment: high-throughput flow cytometry on cells expressing the CD73 variant
T3 construct: also called CD73 variant E400A
T3 CD73 subunit: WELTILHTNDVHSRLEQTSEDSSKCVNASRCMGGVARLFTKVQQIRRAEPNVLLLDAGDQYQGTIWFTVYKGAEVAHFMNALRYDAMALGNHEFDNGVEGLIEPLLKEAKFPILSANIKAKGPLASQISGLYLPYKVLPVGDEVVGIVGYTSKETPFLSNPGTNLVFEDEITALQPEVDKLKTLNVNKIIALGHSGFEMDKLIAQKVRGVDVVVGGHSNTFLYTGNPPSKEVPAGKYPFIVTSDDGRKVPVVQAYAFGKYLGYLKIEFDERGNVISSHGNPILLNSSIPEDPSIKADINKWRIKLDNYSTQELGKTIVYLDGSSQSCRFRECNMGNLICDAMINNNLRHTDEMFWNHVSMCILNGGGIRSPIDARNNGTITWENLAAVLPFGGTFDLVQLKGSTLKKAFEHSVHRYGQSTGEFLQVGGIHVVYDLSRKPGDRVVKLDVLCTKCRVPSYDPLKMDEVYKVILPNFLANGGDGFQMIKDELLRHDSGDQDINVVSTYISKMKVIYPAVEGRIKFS
Protocol: (§1) To identify the epitope of Hu101-28, a library of clones of single amino acid-mutated CD73 variants was made. Binding of Hu101-28 Fab to each variant in the library was determined, in duplicate, by high-throughput flow cytometry. For each CD73 variant, the mean binding value was plotted as a function of CD73 expression (represented by control reactivity) on chart and critical residues were identified from the chart. Critical residues for CD73 Fab binding (outlined in red) were identified as those whose mutations were negative for test Fab binding, but positive for the control MAbs. The mean binding reactivities (and ranges) are listed for the critical residues identified in the screens, and are shown in FIG. 23.

Y345A [6] = biological target: T4, Y345A; experiment: as above
T4 construct: also called CD73 variant Y345A
T4 CD73 subunit: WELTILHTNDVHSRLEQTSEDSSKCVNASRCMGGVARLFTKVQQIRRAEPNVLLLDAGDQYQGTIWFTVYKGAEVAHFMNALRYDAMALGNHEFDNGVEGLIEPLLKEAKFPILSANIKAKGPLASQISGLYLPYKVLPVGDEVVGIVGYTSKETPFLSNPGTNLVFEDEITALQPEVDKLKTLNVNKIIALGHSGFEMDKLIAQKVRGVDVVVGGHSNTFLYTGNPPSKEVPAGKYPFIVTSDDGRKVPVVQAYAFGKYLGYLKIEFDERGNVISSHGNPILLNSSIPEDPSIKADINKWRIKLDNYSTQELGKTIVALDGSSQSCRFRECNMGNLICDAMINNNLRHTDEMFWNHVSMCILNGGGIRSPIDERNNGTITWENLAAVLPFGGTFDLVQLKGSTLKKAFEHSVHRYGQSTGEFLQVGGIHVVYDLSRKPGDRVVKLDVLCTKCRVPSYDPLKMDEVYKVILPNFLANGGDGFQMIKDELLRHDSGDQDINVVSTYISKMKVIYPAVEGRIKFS
Protocol: as §1

R401A [7] = biological target: T5, R401A; experiment: as above
T5 construct: also called CD73 variant R401A
T5 CD73 subunit: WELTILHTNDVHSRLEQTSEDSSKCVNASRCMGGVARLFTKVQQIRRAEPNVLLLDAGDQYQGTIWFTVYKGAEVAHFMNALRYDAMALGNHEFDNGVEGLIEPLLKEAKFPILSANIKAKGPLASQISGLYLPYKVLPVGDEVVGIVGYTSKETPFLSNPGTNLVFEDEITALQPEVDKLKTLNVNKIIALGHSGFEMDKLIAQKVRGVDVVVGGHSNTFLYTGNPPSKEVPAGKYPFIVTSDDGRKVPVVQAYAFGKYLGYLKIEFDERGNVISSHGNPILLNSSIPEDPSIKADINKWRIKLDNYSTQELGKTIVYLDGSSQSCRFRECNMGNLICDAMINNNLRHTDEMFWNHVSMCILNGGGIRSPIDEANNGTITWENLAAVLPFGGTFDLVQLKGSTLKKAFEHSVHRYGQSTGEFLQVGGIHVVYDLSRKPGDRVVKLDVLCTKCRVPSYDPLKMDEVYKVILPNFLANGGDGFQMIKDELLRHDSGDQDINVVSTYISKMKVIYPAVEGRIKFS
Protocol: as §1

D399A [8] = biological target: T6, D399A; experiment: as above
T6 construct: also called CD73 variant D399A
T6 CD73 subunit: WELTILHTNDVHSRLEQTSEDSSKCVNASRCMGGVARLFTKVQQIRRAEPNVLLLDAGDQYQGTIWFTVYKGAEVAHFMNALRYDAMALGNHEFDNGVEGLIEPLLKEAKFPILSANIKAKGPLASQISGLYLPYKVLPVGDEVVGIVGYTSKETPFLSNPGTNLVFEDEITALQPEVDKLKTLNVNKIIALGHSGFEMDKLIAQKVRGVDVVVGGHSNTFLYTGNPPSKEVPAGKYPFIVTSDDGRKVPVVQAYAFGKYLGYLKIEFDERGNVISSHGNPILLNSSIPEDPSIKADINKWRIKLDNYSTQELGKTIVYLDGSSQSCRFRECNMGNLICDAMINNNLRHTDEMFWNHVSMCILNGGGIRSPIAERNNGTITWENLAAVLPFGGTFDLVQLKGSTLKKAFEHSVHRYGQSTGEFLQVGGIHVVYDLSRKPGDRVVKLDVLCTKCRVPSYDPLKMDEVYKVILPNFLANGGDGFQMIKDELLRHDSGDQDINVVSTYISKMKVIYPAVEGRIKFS
Protocol: as §1

E400A [9] = biological target: T3, E400A; experiment: high-throughput flow cytometry on cells expressing the CD73 variant, in duplicate; mean (range)
Protocol: as §1

Y345A [10] = biological target: T4, Y345A; experiment: as above
Protocol: as §1

R401A [11] = biological target: T5, R401A; experiment: as above
Protocol: as §1

D399A [12] = biological target: T6, D399A; experiment: as above
Protocol: as §1

B1: Hu101-25 (antibody, V domains shown)
VH: EVQLQESGPGLVKPSETLSLTCAVSGYSISSGYYWNWIRQPPGKGLEWIGYINYGGSNGYNPSLKSRVTISRDTSKNQFSLKLSSVTAADTAVYYCARDYDAYYEALDDWGQGTTVTVSS
VL: EIVLSQSPATLSLSPGERATLSCRASSRVNYMHWYQQKPGQSPRPWISATSNLASGVPARFSGSGSGTSYTLTISSLEPEDFAVYYCQQWSSNPPTFGGGTKVEIK
notes: also called humanized anti-CD73 antibody Hu101-25
[1]
  Kd: 0.747 nM
  koff: 5.51e-05 s⁻¹
  kon: 73700 M⁻¹ s⁻¹
[2]
  IC50 (nM), inhibition of recombinant CD73 enzymatic activity: 4.72 nM
[3]
  IC50 (nM), inhibition of CD73 enzymatic activity on SK-OV-3 cells: 2.98 nM
[4]
  EC50: 2.38 nM

B2: Hu101-28 Fab (Fab, V domains shown)
VH: EVQLQESGPGLVKPSETLSLTCAVSGYSITSGYYWNWIRQPPGKKLEWMGYINYGGSNGYNPSLKSRITISRDTSKNQFSLKLSSVTAADTAVYYCARDYDAYYEALDDWGQGTTVTVSS
VL: EIVLSQSPATLSLSPGERATLSCRASSRVNYMHWYQQKPGQSPRPWISATSNLASGVPARFSGSGSGTSYTLTISSLEPEDFAVYYCQQWSSNPPTFGGGTKVEIK
notes: also called test Fab; CD73 Fab
E400A [5]
  binding result: no binding
Y345A [6]
  binding result: no binding
R401A [7]
  binding result: no binding
D399A [8]
  binding result: no binding
E400A [9]
  Binding Reactivity (% WT): 3.6 % WT
Y345A [10]
  Binding Reactivity (% WT): 2.7 % WT
R401A [11]
  Binding Reactivity (% WT): 1.1 % WT
D399A [12]
  Binding Reactivity (% WT): 1.8 % WT

Source: patent US20200332005A1 (I MAB, published 2020)
